Biological target: the molecule itself
Assay: crystal structure; apo BhMntR; sitting-drop vapor diffusion at 296 K, 0.1 M sodium/potassium phosphate pH 6.2, 0.4 M magnesium formate; 2.3 Å; two subunits in the asymmetric unit

B1: manganese transport regulator MntR from Bacillus halodurans (natural protein, UniProt Q9K943 1-139, looked up)
chain: MPTPSMEDYLERIYLLIEEKGYARVSDIAEALEVHPSSVTKMVQKLDKSDYLVYERYRGLILTAKGKKIGKRLVYRHDLLEDFLKMIGVDSDHIYEDVEGIEHHLSWDAIDRIGDLVQYFQEDPSRLNDLREVQKKNEE
notes: MntR homologue BH2807 of Bacillus halodurans, a protein of 139 amino acids; gene amplified from genomic DNA into pET-28b(+) NdeI/XhoI; subunit described as residues 1-71 (domain 1) and 72-139 (domain 2); Homodimer in both crystal forms; also called BhMntR; BH2807; source: E. coli BL21(DE3) Star pLysS, purified (Ni IMAC, Superdex 200 gel filtration)
stoichiometry N: 2

Reference: PMC6860424, “Structural analysis of the manganese transport regulator MntR from Bacillus halodurans in apo and manganese bound forms” (PLoS ONE, 2019)
